Test results from patent US20120196307.

Columns and labels:
[1] = target: synaptotagmin-1, intact 65 kDa protein (rat) (UniProt P21707)
[2] = tested on: GST-CRMP2 recombinant protein (Kinasource, cat# SU-040) [GST: P08515]
[3] = tested on: GST-synaptotagmin recombinant protein [GST: P08515]
[4] = target: collapsin response mediator protein-2, intact (rat) (UniProt P47942)

Sequence of synaptotagmin-1, intact 65 kDa protein (rat) (P21707 whole entry): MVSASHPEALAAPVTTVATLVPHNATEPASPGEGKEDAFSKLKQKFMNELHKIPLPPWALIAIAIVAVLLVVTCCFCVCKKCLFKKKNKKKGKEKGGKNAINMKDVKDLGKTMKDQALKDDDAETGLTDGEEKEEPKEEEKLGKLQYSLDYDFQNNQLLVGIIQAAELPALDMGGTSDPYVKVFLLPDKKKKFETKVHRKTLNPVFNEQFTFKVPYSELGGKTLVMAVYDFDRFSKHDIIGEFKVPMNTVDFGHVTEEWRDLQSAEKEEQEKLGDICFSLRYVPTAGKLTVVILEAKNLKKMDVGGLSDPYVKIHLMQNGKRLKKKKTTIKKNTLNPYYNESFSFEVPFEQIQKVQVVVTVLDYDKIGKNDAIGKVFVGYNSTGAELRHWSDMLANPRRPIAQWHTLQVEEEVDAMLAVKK
Sequence of GST-synaptotagmin recombinant protein [GST: P08515] (P08515 whole entry, looked up): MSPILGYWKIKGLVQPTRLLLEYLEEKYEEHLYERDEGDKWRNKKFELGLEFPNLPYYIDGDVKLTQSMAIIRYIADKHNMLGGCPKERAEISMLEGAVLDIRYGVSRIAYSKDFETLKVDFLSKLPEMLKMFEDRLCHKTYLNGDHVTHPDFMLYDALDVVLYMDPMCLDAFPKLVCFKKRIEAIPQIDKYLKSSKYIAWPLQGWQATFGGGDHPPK
Sequence of GST-CRMP2 recombinant protein (Kinasource, cat# SU-040) [GST: P08515] (P08515 whole entry, looked up): as above

| Substance | in vitro protease digestion, Western blot [1] | in vitro digestion of the purified protein, Coomassie and Western blot [2] | in vitro digestion of the recombinant protein, Western blot [3] | in vitro protease digestion of naive brain lysate, Western blot [4] |
| --- | --- | --- | --- | --- |
| MMP-2 | Overall, Syt1 was relatively resistant to these proteases and under no conditions was the TBI-associated characteristic BDP-33k detected (results not shown). | – | – | – |
| MMP-9 | Overall, Syt1 was relatively resistant to these proteases and under no conditions was the TBI-associated characteristic BDP-33k detected (results not shown). | – | – | – |
| calpain (purified; isoform not named where the result is told) | – | purified GST-CRMP-2 protein digested by calpain. The obtained cleavage fragments were used to determine the calpain cleavage site. | The recombinant synaptotagmin was cleaved in vitro to a 21 kDa BDP as detected with anti-GST. | in vitro calpain treatment of naive brain lysate resulted in the same fragmentation pattern observed after TBI in vivo, with the 62 kDa and 66 kDa intact CRMP-2 bands disappearing |
| cathepsin B | Overall, Syt1 was relatively resistant to these proteases and under no conditions was the TBI-associated characteristic BDP-33k detected (results not shown). | – | – | – |
| cathepsin D | Overall, Syt1 was relatively resistant to these proteases and under no conditions was the TBI-associated characteristic BDP-33k detected (results not shown). | – | – | – |
